Data set [1] has as its system T1, B5 deaminase.
T1 sequence: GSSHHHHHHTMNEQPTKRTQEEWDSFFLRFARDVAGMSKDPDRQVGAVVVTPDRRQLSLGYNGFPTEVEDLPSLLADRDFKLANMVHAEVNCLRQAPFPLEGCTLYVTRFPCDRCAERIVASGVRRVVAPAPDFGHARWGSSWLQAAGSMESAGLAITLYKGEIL
Conditions: LC/MS.

In data set [2] the test system is T1, B5 deaminase.
Data set [3] deals with T2, E10 deaminase.
T2 sequence: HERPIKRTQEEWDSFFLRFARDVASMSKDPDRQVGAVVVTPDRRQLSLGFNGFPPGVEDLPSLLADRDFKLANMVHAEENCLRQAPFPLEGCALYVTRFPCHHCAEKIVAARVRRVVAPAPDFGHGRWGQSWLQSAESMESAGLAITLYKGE
The settings on record: 2-3 h.

The test system of data set [4] is T1, B5 deaminase. Conditions: Zn, 2-3 h.
The test system of data set [5] is T3, F7 deaminase.
T3 sequence: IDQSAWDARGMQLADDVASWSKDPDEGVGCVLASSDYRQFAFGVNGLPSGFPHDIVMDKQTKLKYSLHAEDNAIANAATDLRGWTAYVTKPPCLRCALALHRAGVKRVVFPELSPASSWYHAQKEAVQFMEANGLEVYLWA
Conditions: Zn, 2-3 h.

For data set [6], the system named is T4, PBCV-1 deaminase (Paramecium bursaria chlorella virus 1?).
T4 sequence: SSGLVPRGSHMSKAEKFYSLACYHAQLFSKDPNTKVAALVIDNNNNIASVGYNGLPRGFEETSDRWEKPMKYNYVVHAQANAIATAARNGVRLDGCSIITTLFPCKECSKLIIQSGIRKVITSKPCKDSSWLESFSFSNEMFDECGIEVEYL
The settings on record: overnight.

A further data set concerns B4 deaminase. The settings on record: 5mC at position 17; solid support, overnight.
For data set [7], the system named is T2, E10 deaminase. The settings on record: all C replaced by 5mC; most preferred motif ATCAA; least GGCGC 11.58%.
The subject of data set [8] is T1, B5 deaminase. The settings on record: all C replaced by 5mC; most preferred motif ATCAA; least GGCCC 22.51%.
A further data set deals with T5, H3 deaminase.
T5 sequence: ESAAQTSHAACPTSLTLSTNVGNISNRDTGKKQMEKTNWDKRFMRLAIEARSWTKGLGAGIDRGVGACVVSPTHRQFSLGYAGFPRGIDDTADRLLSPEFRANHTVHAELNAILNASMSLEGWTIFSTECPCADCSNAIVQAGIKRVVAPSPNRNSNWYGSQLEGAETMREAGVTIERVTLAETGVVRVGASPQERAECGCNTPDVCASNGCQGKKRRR
The settings on record: all C replaced by 5mC; most preferred motif AACTT; least GGCCC 1.28%.

The subject of another data set is T6, G12 deaminase.
T6 sequence: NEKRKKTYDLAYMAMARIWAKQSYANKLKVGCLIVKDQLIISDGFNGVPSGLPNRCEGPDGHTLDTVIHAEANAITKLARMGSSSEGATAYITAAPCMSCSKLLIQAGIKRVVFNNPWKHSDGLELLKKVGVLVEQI
Conditions: all C replaced by 5mC; most preferred motif TACGG; least GCCCC 0.90%.

Data set [9] has as its system T3, F7 deaminase. The settings on record: all C replaced by 5mC; most preferred motif GTCAG; least GGCCG 5.51%.
In data set [10] the test system is T1, B5 deaminase. Conditions: 30 C 12 h, 6 uM enzyme.
Another data set has as its target T7, PRW294.
T7 chain: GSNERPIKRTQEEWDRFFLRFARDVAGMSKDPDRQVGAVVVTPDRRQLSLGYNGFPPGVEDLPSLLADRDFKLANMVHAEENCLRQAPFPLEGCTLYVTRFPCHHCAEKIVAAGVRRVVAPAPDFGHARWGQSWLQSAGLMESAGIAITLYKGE
Put plainly: 1 h. Conditions: label: 5'-FAM.

The target in another data set is T8, PRW311.
T8 chain: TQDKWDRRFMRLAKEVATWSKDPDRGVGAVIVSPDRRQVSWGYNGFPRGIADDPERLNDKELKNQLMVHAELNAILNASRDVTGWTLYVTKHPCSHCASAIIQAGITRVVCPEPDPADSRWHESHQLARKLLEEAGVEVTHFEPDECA
Put plainly: 1 h. The settings on record: label: 5'-FAM.

For the next data set, the target named is T9, PRW314.
T9 chain: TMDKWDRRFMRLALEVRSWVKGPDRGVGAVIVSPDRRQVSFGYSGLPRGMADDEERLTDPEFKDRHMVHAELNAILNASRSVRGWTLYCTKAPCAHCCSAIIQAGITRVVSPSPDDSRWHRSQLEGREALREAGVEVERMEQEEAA
Put plainly: 1 h. The settings on record: label: 5'-FAM.

The next data set concerns the target T10, PRW313.
T10 chain: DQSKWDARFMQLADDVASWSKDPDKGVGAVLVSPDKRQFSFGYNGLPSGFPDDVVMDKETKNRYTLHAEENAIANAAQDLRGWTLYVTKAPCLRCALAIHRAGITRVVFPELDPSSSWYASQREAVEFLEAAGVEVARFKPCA
Put plainly: 1 h. Conditions: label: 5'-FAM.

The next data set has as its target T11, 252 deaminase.
T11 chain: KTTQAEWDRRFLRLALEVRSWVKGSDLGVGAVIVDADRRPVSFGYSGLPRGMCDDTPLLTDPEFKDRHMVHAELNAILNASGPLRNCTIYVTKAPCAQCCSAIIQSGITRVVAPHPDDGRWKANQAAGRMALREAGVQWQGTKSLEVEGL
In words: solid support, overnight. Conditions: tags: immobilized on solid support; label: 5'-FAM.

A further data set deals with T12, H2 deaminase.
T12 chain: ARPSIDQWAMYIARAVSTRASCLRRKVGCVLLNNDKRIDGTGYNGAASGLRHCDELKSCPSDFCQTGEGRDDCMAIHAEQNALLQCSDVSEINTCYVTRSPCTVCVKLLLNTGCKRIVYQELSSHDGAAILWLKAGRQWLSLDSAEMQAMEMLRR
Put plainly: solid support, overnight. The settings on record: tags: immobilized on solid support; label: 5'-FAM.

In the next data set the target is T13, 251 deaminase.
T13 chain: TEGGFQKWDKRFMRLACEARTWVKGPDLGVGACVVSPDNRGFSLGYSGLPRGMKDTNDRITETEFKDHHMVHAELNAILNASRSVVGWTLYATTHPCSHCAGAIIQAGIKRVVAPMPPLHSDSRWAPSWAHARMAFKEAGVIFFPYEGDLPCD
In words: solid support, overnight. The settings on record: tags: immobilized on solid support; label: 5'-FAM.

A further data set has as its target T14, G10 deaminase.
T14 chain: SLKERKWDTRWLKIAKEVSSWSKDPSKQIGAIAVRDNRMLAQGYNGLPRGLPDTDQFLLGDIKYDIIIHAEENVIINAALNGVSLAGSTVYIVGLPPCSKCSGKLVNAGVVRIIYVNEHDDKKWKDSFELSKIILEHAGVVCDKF
Put plainly: solid support, overnight. The settings on record: tags: immobilized on solid support; label: 5'-FAM.

The target in a further data set is T15, E12 deaminase.
T15 chain: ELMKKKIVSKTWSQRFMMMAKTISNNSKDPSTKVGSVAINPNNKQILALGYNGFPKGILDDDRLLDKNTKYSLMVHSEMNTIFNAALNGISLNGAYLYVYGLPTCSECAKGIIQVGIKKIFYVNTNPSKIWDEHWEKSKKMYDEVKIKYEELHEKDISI
Put plainly: solid support, overnight. The settings on record: tags: immobilized on solid support; label: 5'-FAM.

In a further data set the target is T16, F12 deaminase.
T16 chain: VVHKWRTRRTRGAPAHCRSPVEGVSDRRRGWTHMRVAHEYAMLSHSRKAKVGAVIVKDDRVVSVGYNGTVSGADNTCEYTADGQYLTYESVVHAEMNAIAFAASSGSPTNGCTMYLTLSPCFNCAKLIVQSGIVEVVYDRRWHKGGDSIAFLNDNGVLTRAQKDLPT
Put plainly: solid support, overnight. Conditions: tags: immobilized on solid support; label: 5'-FAM.

A further data set addresses T17, 206 deaminase.
T17 chain: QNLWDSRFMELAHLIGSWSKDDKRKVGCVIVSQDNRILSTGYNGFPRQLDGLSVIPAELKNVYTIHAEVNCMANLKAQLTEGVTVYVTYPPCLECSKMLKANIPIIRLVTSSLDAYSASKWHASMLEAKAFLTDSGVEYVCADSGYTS
In words: solid support, overnight. The settings on record: tags: immobilized on solid support; label: 5'-FAM.

Read-outs that look alike come from different tables or passages of the source.

Turning to ssDNA oligo with 5mC (Table 6), the activity (% deamination) in the data set on B5 deaminase [1] (5mC) is 53.
The molecule T4 genomic DNA, denatured gave an activity (% deamination) with B5 deaminase [2] (5gmC (glucosylated 5hmC), NaOH and heat denatured) of 6.
As for “ATACACCGATGCAGAACTCATGGGCTTACGC [FAM C oligo 4]”, the activity (% deamination) in the data set with E10 deaminase [3] was found to be 3; in the data set on B5 deaminase [4] it was 4; in the data set with F7 deaminase [5], 12; in data set [6], 7.
T4 genomic DNA, native registered an activity (% deamination) in the data set with B5 deaminase [2] (5gmC (glucosylated 5hmC), not denatured) of 3.
As for XP12 genomic DNA, native, in the data set on B5 deaminase [2] (all C replaced by 5mC, not denatured), the activity (% deamination) stood at 4.
For “ATACACCGATGCAGAACTCATGGGCTTACGC [FAM 5mC oligo 1]”, the activity (% deamination) stood at 54 with E10 deaminase [3] (5mC at position 17, highest measured (6-7% in FIG. 7C/D)); 74 with B5 deaminase [4] (5mC at position 17, EcoRI/CE assay, 42 C, Bis-Tris pH 6.5, 36% in FIG. 7B and when on Ni beads); 3 in the data set with B4 deaminase; 72 in the data set on F7 deaminase [5] (5mC at position 17); 51 in data set [6] (5mC at position 17, 42 C, Bis-Tris pH 6.5).
Regarding XP12 genomic DNA, denatured, the activity (% deamination) with B5 deaminase [2] (all C replaced by 5mC, NaOH and heat denatured) stood at 35; in the data set with E10 deaminase [7] it was 40.9; in the data set on B5 deaminase [8] it was 74.6; in the data set on H3 deaminase, 11.3; with G12 deaminase it was 12.7; in the data set with F7 deaminase [9], 22.
As for ssDNA oligo with 5hmC (Table 6), the activity (% deamination) in the data set with B5 deaminase [1] (5hmC) stood at 36.
For “TGTCCGATAGACTCTACGCA [5mC-oligo (Oligo 2)]”, the activity with APOBEC (5mC at position 14, unmodified C 94.1%) was 100 % 5mC to T; in the data set with B5 deaminase [10] (5mC at position 14, unmodified C 2.80%), 21.1 % 5mC to T.
As to ssDNA oligo with 5gmC (Table 6), the activity (% deamination) in the data set on B5 deaminase [1] (5gmC) came out at 2.
In the data set with B5 deaminase [2] (NaOH and heat denatured), lambda genomic DNA, denatured returned an activity (% deamination) of 6.
In the data set on B5 deaminase [1] (average), ssDNA oligo C (Table 6) registered an activity (% deamination) of 2.
In the case of ssDNA oligo with 5fC (Table 6), the activity (% deamination) in the data set with B5 deaminase [1] (5fC) turned out to be 2.
T4gt genomic DNA, denatured: in the data set with B5 deaminase [2] (all C replaced by 5hmC, NaOH and heat denatured), the activity (% deamination) turned out to be 27.
With “TGTCCGATAGACTCTACGCA [5hmC-oligo (Oligo 1)]”, the activity (% 5hmC to 5hmU) in the data set on APOBEC (5hmC at position 14, unmodified C 100%) was determined as 100; with B5 deaminase [10] (5hmC at position 14, DpnII buffer, LC/MS, unmodified C 0.90%), 35.
Molecule T4gt genomic DNA, native came in with an activity (% deamination) in the data set on B5 deaminase [2] (all C replaced by 5hmC, not denatured) of 9.
Molecule lambda genomic DNA, native came in with an activity (% deamination) with B5 deaminase [2] (not denatured) of 3.
As to ssDNA oligo with 5caC (Table 6), in the data set on B5 deaminase [1] (5caC), the activity (% deamination) was determined as 2.
Consider ATACACCGATGCAGAACTCATGGGCTTACGC (ssDNA, 5mC at position 17) [FAM 5mC oligo 1], for which the activity in the data set with PRW294 is 73 % deamination; in the data set with PRW311, 69 % deamination; with PRW314, 90 % deamination; with PRW313, 90 % deamination; in the data set with 252 deaminase it was 12 % deamination; with H2 deaminase, 7 % deamination. Moreover, the activity was determined as 66 % deamination with 251 deaminase; 4.5 % deamination with G10 deaminase; 5 % deamination in the data set with E12 deaminase; 10 % deamination with F12 deaminase; 50 % deamination with 206 deaminase.
As to ATACACCGATGCAGAACTCATGGGCTTACGC (ssDNA) [FAM C oligo 4], the activity with PRW314 stood at 13 % deamination; in the data set with PRW313 it was 11 % deamination; with G10 deaminase, 2.6 % deamination.
